Measured values published in publication PMC10767048 (Nature Communications, 2024).

Biological target: T1, bovine serum albumin (Bos taurus, UniProt P02769)
T1 construct: also called BSA
Test: ELISA
Settings: both partners purified

T1 sequence (P02769 25-607): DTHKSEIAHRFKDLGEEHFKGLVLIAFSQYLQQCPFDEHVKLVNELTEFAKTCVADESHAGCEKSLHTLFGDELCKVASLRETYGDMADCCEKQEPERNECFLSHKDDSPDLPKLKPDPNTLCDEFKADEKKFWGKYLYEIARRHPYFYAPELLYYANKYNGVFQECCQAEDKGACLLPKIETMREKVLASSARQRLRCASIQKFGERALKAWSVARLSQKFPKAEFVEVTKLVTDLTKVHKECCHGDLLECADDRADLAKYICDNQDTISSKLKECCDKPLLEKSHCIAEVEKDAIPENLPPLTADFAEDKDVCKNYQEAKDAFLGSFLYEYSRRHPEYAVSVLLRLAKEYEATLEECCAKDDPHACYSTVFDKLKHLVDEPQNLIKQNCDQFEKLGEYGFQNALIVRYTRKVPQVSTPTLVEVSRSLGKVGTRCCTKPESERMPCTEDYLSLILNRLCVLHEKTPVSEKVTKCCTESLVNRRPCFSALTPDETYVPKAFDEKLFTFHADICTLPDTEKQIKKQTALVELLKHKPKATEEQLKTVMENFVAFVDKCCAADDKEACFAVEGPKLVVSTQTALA

B1: nanobody D5 (camel VHH) (VHH)
VHH: AWQLVESGGGSVQPGGSLTLTCQASKSTFSTSGMRWERQAQGKGVEFVADISSDSTRKWYSDSVKGRFTISRSNWWRTVTLQMNDLKPEDTARYYCKDLESHHLRGQGTQVTVSS
notes: source: E. coli HB2151 (pComb3x phagemid), released with polymyxin B, purified (HisTrap)
- binding result: no binding (tested: 1 μg/ml)
